Assay results published in article PMC9935876, “Structure of the planar cell polarity cadherins Fat4 and Dachsous1” (Nature Communications, 2023).

B1: human Dchs1(EC1–4) [human] / human Fat4(EC1–4) [human] (parent complex)
chain 1: DPQAGSLDLQIDEEQPAGTLIGDISAGLPAGTAAPLMYFISAQEGSGVGTDLAIDEHSGVVRTARVLDREQRDRYRFTAVTPDGATVEVTVRVADINDHAPAFPQARAALQVPEHTAFGTRYPLEPARDADAGRLGTQGYALSGDGAGETFRLETRPGPDGTPVPELVVTGELDRENRSHYMLQLEAYDGGSPPRRAQALLDVTLLDINDHAPAFNQSRYHAVVSESLAPGSPVLQVFASDADAGVNGAVTYEINRRQSEGDGPFSIDAHTGLLQLERPLDFEQRRVHELVVQARDGGAHPELGSAFVTVHVRDANDNQPSMTVIFLSADGSPQVSEAAPPGQLVARISVSDPDDGDFAHVNVSLEGGEGHFALSTQDSVIYLVCVARRLDREERDAYNLRVTATDSGSPPLRAEAAFVLHVTDVNDNAPAF
chain 2: DPAEPRQVFQVLEEQPPGTLVGTIQTRPGFTYRLSESHALFAINSSTGALYTTSTIDRESLPSDVINLVVLSSAPTYPTEVRVLVRDLNDNAPVFPDPSIVVTFKEDSSSGRQVILDTATDSDIGSNGVDHRSYRIIRGNEAGRFRLDITLNPSGEGAFLHLVSKGGLDREVTPQYQLLVEVEDKGEPKRRGYLQVNVTVQDINDNPPVFGSSHYQAGVPEDAVVGSSVLQVAAADADEGTNADIRYRLQDEGTPFQMDPETGLITVREPLDFEARRQYSLTVQAMDRGVPSLTGRAEALIQLLDVNDNDPVVKFRYFPATSRYASVDENAQVGTVVALLTVTDADSPAANGNISVQILGGNEQRHFEVQSSKVPNLSLIKVASALDRERIPSYNLTVSVSDNYGAPPGAAVQARSSVASLVIFVNDINDHPPVF
B2: human Fat4(EC1–4) [human] / human Dchs1(EC1–4) [human] (parent complex)
chain 1: B1 chain 2
chain 2: B1 chain 1

Variants of: B1
Assay: ITC; parent: 1; read off a plot
A ratio to parent of roughly 4.4 was found for chain 1 F39A in this work.

Variants of: B2
Assay: ITC; parent: 1; read off a plot
A ratio to parent of roughly 1.8 was found for chain 1 F318A in this work.
